The target in assay [1] is T1, p75 chain of the human IL-2 receptor on YTJB cells (human, UniProt P14784 27-551).
T1 construct: whole, on cells; also called p75 protein; p75 antigen
T1 sequence (looked up): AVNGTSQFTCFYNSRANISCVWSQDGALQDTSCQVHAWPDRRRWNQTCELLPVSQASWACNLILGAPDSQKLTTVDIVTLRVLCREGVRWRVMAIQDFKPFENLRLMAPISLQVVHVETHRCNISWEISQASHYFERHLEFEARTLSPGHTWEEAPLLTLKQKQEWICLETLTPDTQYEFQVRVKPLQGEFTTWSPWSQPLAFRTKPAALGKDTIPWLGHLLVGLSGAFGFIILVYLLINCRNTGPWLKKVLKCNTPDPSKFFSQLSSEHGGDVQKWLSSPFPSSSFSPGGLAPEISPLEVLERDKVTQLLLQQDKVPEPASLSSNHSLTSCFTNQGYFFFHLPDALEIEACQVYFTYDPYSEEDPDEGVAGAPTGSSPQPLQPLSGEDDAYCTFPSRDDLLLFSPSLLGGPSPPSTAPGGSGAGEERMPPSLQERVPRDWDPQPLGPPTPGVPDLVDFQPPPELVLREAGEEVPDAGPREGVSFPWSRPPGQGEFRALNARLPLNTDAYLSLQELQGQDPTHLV
Briefly: competition with radio-iodinated mouse mik-β1 on YTJB cells, Berzofsky calculation.
Method: After incubation for 2 hr at 0° C. the cells were washed twice with binding buffer without mouse Ig and collected by centrifugation. The radioactivity bound to cells was measured and expressed as the ratio of bound/free cpm.

The target of assay [2] is T1, p75 chain of the human IL-2 receptor on …. Briefly: flow cytometry on YTJB cells.
Method: Cells were suspended in FACS buffer (PBS+2% BSA+0.1% azide) at approximately 5×10⁶/ml. 100 ul of cell suspension was transferred to a polystyrene tube and incubated with 100 ng of purified antibody on ice for 30 min. The cells were washed with FACS buffer and incubated with goat anti-human Ig antibody on ice for another 30 min. Then the cells were washed and incubated with FITC labeled rabbit anti-goat Ig antibody for 30 min. The cells were washed again and finally resuspended in PBS+1% paraformaldehyde. Cells were analyzed on a FACSmate (Becton Dickinson).

Results on two molecules are retold here after US20080160018A1 (PDL BIOPHARMA, published 2008).

B1: humanized mik-β1 antibody (antibody, V domains shown)
VH: EVQLLESGGGLVQPGGSLRLSCAASGFTVTSYGVHWVRQAPGKGLEWVGVIWSGGSTDYNAAFISRFTISRDNSKNTLYLQMNSLQAEDTAIYYCARAGDYNYDGFAYWGQGTLVTVSS
VL: DIQMTQSPSSLSASVGDRVTITCSGSSSVSFMYWYQQKPGKAPKLLIYDTSNLASGVPSRFSGSGSGTDYTFTISSLQPEDIATYYCQQWSTYPLTFGQGTKVEVK
With B1, in assay [1], the “fold difference of binding affinity against the mouse mik-β1 antibody” value was at most 2 fold.

B2: chimeric mik-β1 antibody (antibody, V domains shown)
VH: QVQLKQSGPGLVQPSQSLSITCTVSGFSVTSYGVHWIRQSPGKGLEWLGVIWSGGSTDYNAAFISRLTISKDNSKSQVFFKVNSLQPADTAIYYCARAGDYNYDGFAYWGQGTLVTVSA
VL: QIVLTQSPAIMSASPGEKVTMTCSGSSSVSFMYWYQQRPGSSPRLLIYDTSNLASGVPVRFSGSGSGTSYSLTISRMEAEDAATYYCQQWSTYPLTFGAGTKLELK
Consider B2, for which, in assay [2], the binding result is “binds”.
